Consider 21 sequences from the DeepSol protein solubility set.

A short description of this series: soluble on expression in E. coli; label from the status in PepcDB or PDB records.
As for “MSYPSLFAPLDLGFTTLRNRVLMGSMHTGLEEHPDGAERLAAFYAERARHGVALIVTGGIAPVPSGVVMTGGAMLNDASQLTPHRVVTDAVHAQGGKIALQILHTGRYSYQPHLVAPSAIQAPINRFMPHELTHDEILQLIDDFAHCAQLAREAGYDGVEVMGSEGYLINEFLTRRTNHRDDEWGGDYASRMRFAVEVVRAVRQRVGNDFIIIYRLSMLDLVENGGTFDETVQLAQAIEAAGASLINTGIGWHEARIPTIATPVPRGAFSWVTRKLKGHVSVPLIATNRINDPQVAETILTRGDADMVSMARPFLADAEFLTKAQSGRADEINTCIGCNQACLDRIFIGKVTSCLVNPRACHETHMPITPAIRKKNLAVVGAGPAGLAFAINAASRGHHVTLFDAQSEIGGQFTIARQIPGKEEFYETLRYYRRMIDVTGVTLKLNQRVNAEDLQPFDEAILACGIVPRRPPIDGIDHPKALTYLEVLRDKAPVGKRVAIIGCGGIGFDTAMYLSQHGESTSQNIAEFCTEWGIDTSLQQAGGLRPEGPRLARSPRQIVMLQRKTSKPGEGLGKTTGWIHRATLLARGVKMIPAVSYQKIDDDGLHLLIGGEPQLLEVDHVVICAGQEPRRELADPLRAAGKTVHLIGGCDVAMELDARRAIAQGTRLALEI”, the “soluble on expression in E. coli” value is given as “not soluble”.

In the case of “MLKCAVDEAAGGRAQAFVSSGDNIGGSPFQSSILGDEPTLEALNQMGLDYSAVGNHEFDKGYADLSSRVADLADFDYLGANVEGENPDLAPYGISHLDGVKVAFVGTVSQETPMLVNSEGIEGITFTDPLEATNRVADELVGSGAADVVVALYHEGITGTEAWSENIDVVFAGHTH”, the “soluble on expression in E. coli” value is recorded as “not soluble”.

On to “MARFSSVLIYDGECPYCSVAAKALEQVDDIGAISWYDESAQSFLTAQFDEPPFAMVLVDRPAQQVYAGRAAAEELAGRAGLPDLVGSLVRDNYEKIAHVVGLASGRGLEHHHHHH”, for which the “soluble on expression in E. coli” value was “not soluble”.

For the sequence “MEVEVEKDCRTECSREREIEKERSKDEFHGLIEIDGECMQSGNRKWKRIDSAVKVAKKEKKKKMKDEEKKKEDEDNLQHTIQQSE”, the “soluble on expression in E. coli” value is given as “soluble”.

Take “MSLLNIIRLLAESLPRISDGNENTDVWVNDMKFKMAYSFLNDDIDVIERELEQTVRSDYPLLSEAGLHLLQAGGKRIRPVFVLLSGMFGDYDINKIKYVAVTLEMIHMASLVHDDVIDDAELRRGKPTIKAKWDNRIAMYTGDYMLAGSLEMMTRINEPKAHRILSQTIVEVCLGEIEQIKDKYNMEQNLRTYLRRIKRKTALLIAVSCQLGAIASGADEKIHKALYWFGYYVGMSYQIIDDILDFTSTEEELGKPVGGDLLQGNVTLPVLYALKNPALKNQLKLINSETTQEQLEPIIEEIKKTDAIEASMAVSEMYLQKAFQKLNTLPRGRARSSLAAIAKYIGKRKFEGHHHHHH”: the “soluble on expression in E. coli” value was “not soluble”.

“MKFLKNVLEEGSKLEEFNELELSPEDKELLEYLQQTKAKITVVGCGGAGNNTITRLKMEGIEGAKTVAINTDAQQLIRTKADKKILIGKKLTRGLGAGGNPKIGEEAAKESAEEIKAAIQDSDMVFITCGLGGGTGTGSAPVVAEISKKIGALTVAVVTLPFVMEGKVRMKNAMEGLERLKQHTDTLVVIPNEKLFEIVPNMPLKLAFKVADEVLINAVKGLVELITKDGLINVDFADVKAVMNNGGLAMIGIGESDSEKRAKEAVSMALNSPLLDVDIDGATGALIHVMGPEDLTLEEAREVVATVSSRLDPNATIIWGATIDENLENTVRVLLVITGVQSRIEFTDTGLKRKKLELTGIPKIGSHHHHHH”: the “soluble on expression in E. coli” value was “soluble”.

“MLEEPFFPYQSLASDLLAFLPEDSTDGSHDLSHIHRVWMNVRRLQDKEGGDLEALLAATLLHDCVAVEKNSPLRSQASTLSANKAASILQRMGWPAPRIELVAHAVQAHSFSAGVEPLTLEARILQDSDRLDAIGMIGVARCFYIAGRMGSALYDITNPTAIGRPYQDKRFTIEHFHTKLLSLASGFQTVEGARLAAVRHARLKDFLDGFMEEIGAPDLEHHHHHH”: the “soluble on expression in E. coli” value was “soluble”.

For “MGSDKIHHHHHHMGRVLIIGAGGVGTVVAHKVAQNADVFTDIMIASRTKEKCDNIVKAIGNPNIKTAKVDADNVDELVALFNDFKPEMVINVALPYQDLTIMEACLKAGVNYLDTANYEPKDEAHFEYSWQWAYHDRFKEAGLTAILGCGFDPGVSGIYTAYAAKHYFDEIQYLDIVDCNAGNHHKAFATNFNPEINIREITQNGRYYENGQWVTTGPLEIHKDLTYPNIGPRDSYLLYHEELESLVKHFPTIKRARFWMTFGQEYLTHLRVIQNIGMARIDEVDYNGTKIVPLQFLKAVLPNPQDLGENYEGETSIGCRIRGIKDGKERTYYVYNNCSHQEAYKETGMQGVSYTTGVPAMIGAMMFFKGEWQRPGVNNVEEFNPDPFMEQLNKQGLPWHEVFDKDLEL”, the “soluble on expression in E. coli” value is reported as “not soluble”.

Regarding “MGSDKIHHHHHHMNNSEKMLVCLDQQDLDKADKYFKRALVQDDSETLLSLAAYLEGIGFFPQARQIYEQVKEEFPEVLINLAQIAFEDGLVEEAFRYLEEISEDSSIYVEALLVKADLYQAEGLSDVAREKLLEASHLSDKPIILFGLAELDMELELFNEAISYYAQLDNREIYELTGISTYQRIGIAYASLGKFEAAIEFLEKAVELEYDDQTVFELAALLFEREEYQKANLYFKQLDTINPDFEGYEYAYAQSLHAEHKIDDALAMTQKGLAKNDFDANLLFQASQYAYELHDEAGAEDYLLRAKEVADDSNELALRLSNLYLEQERFEEVVALFDEEVDNVLARWNKAKAYQALERDDEAIALYDELAGELAENPEFLADYVAVLRQLGRLDEAKEQASRYIQLVPDDLAMQEFLNEE”, the “soluble on expression in E. coli” value is recorded as “not soluble”.

Turning to “MDANEFHWLMDMLESVEVGLVVLDLDFHVQAWNGFMEHHSGITARQIRDKVLFEVFPDIPEAWLTRKVDAVAMLNTRAFTSWEQRPYLFKFRNTRPITGTEEYMFQNLTISPITAPNGEVEKVCLLVYDVTEFASSKRALERANEQLAKLSMTDRLTGLLNRGTWENLVDAEYERFRRYGQATSLVMFDIDHFKPVNDTYGHLAGDEVIRHTADVTRNNIRQSDSAGRYGGEEFGIILPETDAESARVICERIREAIEKSTVSTSAGDIQYTVSMGIAQLTETPENYMQWMQKADEALYKAKESGRNKVVVSLEHHHHHH”, the “soluble on expression in E. coli” value is on record as “soluble”.

Turning to “MGSDKIHHHHHHMTEVIRDIPFLATDRVEALLDIERHLIVEQSTIERWFRGQWQRTPPPFYASVDLRNAGFKLAPVDTNLFSAGFNNLNPEFSALYVSAIQHYLNQYHPGLERVLLIPENHTRNLFYLESVARLRELLELAGLDVRVGSLILEDRTVYDLPSGGQLLLEPLCRDDGRLSTRGFDAQLILLNNDLSGGVPEILAGLEQPILPPLAAGWRNRRKSQHFTHYRAVAQELAEVIGIDPWLIDPVFRRCQGIDFMRSEGRECLVANVDAVLEITRERYAHYGIHQRPFVIVKADAGTYGMGIMTAYSGEEFLDLNRKERTRMAKSKEGLPVSDVFIQEGVYTFEQTAQEAVAEPVVYMIGQQVLGGFYRVHTERGRDENLNAPGAHFEPMAFGQTCVLPCRKSPPDAPANRYYAYGVIARLTLVAAAREMADWRRQGTLETGQ”, the “soluble on expression in E. coli” value is listed as “not soluble”.

With “MPETTYKYEDNEVKKKKTIFNENGYIIEELHYDKNRKEPYSYKKRYNDKGLLVESHEHTYTYEYDKNGNLVQIKRPKNSAYGGLERTTYNKAGKIIRTQTFTQNQYDKAGVKITDDSNYLKDKNGELYQSLTDYSYIYNKDGKLQEIRDNVFSSGTIKYSYEYEDGLYVKTAELVTQKFVTYYDKAGNEVKYKWITYSLGPDKPRTQLHLVFKENKRDKYGNLIYQVANRIEELDPEKKGTDVGIYEKKIIEYEYYELEHHHHHH”, the “soluble on expression in E. coli” value is given as “not soluble”.

“MINSKVKPQAVVADAHEDTIRSLYMESLHLVERLHRRLLDVIKDEFDRQGRDDVNAVQALLLFNIGNSELTAGELRSRGYYLGSNVSYNVKKLVDLGLINHQRSRVDRRSVRISLTEEGQAIAETVARLYERHVGSIEKVGGIGTGEFSEMNKLLQRLDRFWNDSIAYRL”: the “soluble on expression in E. coli” value is reported as “not soluble”.

Turning to “MSLKTYALVMAGGRGERLWPLSREDRPKPFLPLFEGKTLLEATLERLAPLVPPERTLLAVRRDQEAVARPYADGIRLLLEPLGRDTAGAVLLGVAEALKEGAERLLVLPADHYVGDDEAYREALATMLEAAEEGFVVALGLRPTRPETEYGYIRLGPREGAWYRGEGFVEKPSYAEALEYIRKGYVWNGGVFAFAPATMAELFRRHLPSHHEALERLLAGASLEEVYAGLPKISIDYGVMEKAERVRVVLGRFPWDDVGNWRALERVFSQDPHENVVLGEGRHVALDTFGCVVYADRGVVATLGVSGLVVAKVGDEVLVVPKDWAREVREVVKRLEAQEEGHHHHHH”, the “soluble on expression in E. coli” value was “soluble”.

For the sequence “SSFKKILGLSSKSHKKSKKMGLPPPYDESSPMETQPSAPLSNDFFGMEDMDLYDKDSLRYEKFRFMLKMTVRSNKPFRSYDDVTAAVSQWDNSYIGMVGKRPFYKIIALIGSSHLQATPAVLADLNQPEYYATLTGRCFLPHRLGLIPPMFNVSETFRKPFNIGIYKGTLDFTFTVSDDESNEKVPHVWEYMNPKYQSQIQKEGLKFGLILSKKATGTWVLDQLSPFK”, the “soluble on expression in E. coli” value was “soluble”.

Consider “MSLIAHSNEIARPIFKSQDQLFTLYQGDCNEVLPQFENQFDLIFADPPYFLSNDGLSIQSGKIVSVNKGDWDKEDGINGIDEFNYQWINNAKKALKDTGSLLISGTYHNIFSLGCVLQKLDFKILNLITWQKTNPPPNFSCRYLTHSAEQIIWARKSRKHKHVFNYEVLKKINNDKQMRDVWSFPAIAPWEKVNGKHPTQKPLALLVRLLLMASDENSLIGDPFSGSSTTGIAANLLKREFIGIEKESEFIKISMDRKIELDARYKEIRSKIKDLNHQEGHHHHHH”, for which the “soluble on expression in E. coli” value was “not soluble”.

Take “MQNAVKLDEIDHKIMNLLYENARISVSEIGRIISMTQPAVKERINKLEDQGVIAAYRTKFEPSKINKNIQAFIMFKTSQCSDFIQFCNAAPEVTDLYRISGEFNYMMKVMSDSMDSLAAFLDSLMQFGLSSPLIVLKSEFEEKLSF”: the “soluble on expression in E. coli” value was “soluble”.

“MRLERVLEEARAKGYPIEDNGLGNLWVVLPRERFKEEMAHYKAMGFNFLADIVGLDYLTYPDPRPERFAVVYELVSLPGWKDGDGSRFFVRVYVPEEDPRLPTVTDLWGSANFLEREVYDLFGIVFEGHPDLRKILTPEDLEGHPLRKDYPLGETPTLFREGRYIIPAEFRAALTGKDPGLTFYKGGSRKGYRSLWADLKKAREVKGLEHHHHHH”: the “soluble on expression in E. coli” value was “not soluble”.

Consider “MGSDKIHHHHHHMSQNVYIGMTLKPWPILLDHYSMSYDGRVSVKSIGYGMHLFKYHGCIMLATRTKVDSTMAYDTITVSAPWWAKDKLHSFLEDTRGDISTEPKVNIFEETEWCRYGILKSSGFSELVLDEGFKQELMGEVDNFASRGESVVSKLTILLHGKTGTGKTGIARALAVEYHRDLYILNLSTVNDATIHKAIRKVPPGAMLLIEDCDCVKATVSRTAESNADNPPLTLGGVLNALDGIIPLDDCLVIMTTNHPDNLDPALIRKGRVDVSIEVPLISAKQVNEDYFERFGAVLNRTEPLLGCEVYELHRRANLRYGVCCKPV”, for which the “soluble on expression in E. coli” value is reported as “not soluble”.

As to “MGHHHHHHSHKKLGLKVGIEIHQQLDTKHKLFCLCPTLTREVEESNFEFFRYLRLKRSEIGEEDRAAKEEVERSRRFIYKYYDTTCLVEADEEPPREVNREALLIAIQVAKMLNMEVVDEVHVMRKIVIDGSNTTGFQRTALVAFGGFLEVDGKRVGVATLCLEEEACRKVEDGEGYAVYSLDRLGIPLVEIGTEPDIDSPEMAKKVAARLGMILRSTGKVKRGLGTIRQDVNISIRDGARVEIKGVQELDILDKIVEYEVLRQVNLLKIR”, the “soluble on expression in E. coli” value is recorded as “soluble”.

In the case of “MATVDPIRYPIGTFQAPQQFEAGEVQEWIAAIRGLPSDLRTAVSGLNDEQLNTPYREGGWTVAQVVHHLADASMNAFLRTKWGVTEDGPTVKPFAESEWAKTADACLLPIEPSLLLLDGLHARWAALLESMTEADFHRTVRPEGAAGEMPLYVLTALYAWHGKHHTAQVASLRKRKGW”, the “soluble on expression in E. coli” value is recorded as “soluble”.
